Results from US20080145903A1, “PROCESSES OF PRODUCING FERMENTATION PRODUCTS” (priority 2006, published 2008).

Tested on: RED STAR yeast
Experiment: Conventional simultaneous saccharification fermentation (SSF) of liquefied corn mash, ethanol yield by weight loss and HPLC
Type: cell-based
Conditions: conventional SSF, 70 hours
Description: Liquefied corn mash was used to evaluate the effect of adding salicylic acid (SA) to a known enzyme dosage of
The performance of these enzymes was compared to controls without salicylic acid addition. The experimental set-up used is described in table below.
5.5 g of RED STAR™ yeast was rehydrated in 100 mL distilled water and incubated at 32° C. for 30 minutes prior to the beginning of fermentation. Approximately 50 million cells/g DS of yeast were added to each of the fermentations.
The corn mash was thawed to room temperature. Urea and Penicillin were added to a final concentration of […] and 3 mg/L respectively. Small-scale (˜4 g) fermentations were carried out in 15 mL polypropylene tubes with five replicates for each experimental condition. The tubes were prepared by drilling a 1/32 inch (1.5 mm) hole and the empty tubes were then weighed before liquefied corn mash was added. The tubes were weighed again after mash was added to determine the exact weight of mash in each tube. This weight was used to calculate the enzyme dosage necessary as follows:
Enzyme was added according to dosage described in table above and 100 μl of rehydrated yeast were added to each tube to begin fermentation. Fermentation progress was followed by weighing the tubes over time for approximately 70 hours. Tubes were vortexed briefly before each weighing. […]

B1: Aspergillus niger GA: Aspergillus niger G1 glucoamylase disclosed in Boel et al., 1984, EMBO J. 3 (5): 1097-1102 (protein, UniProt P69328 25-640, looked up)
Glucoamylase: ATLDSWLSNEATVARTAILNNIGADGAWVSGADSGIVVASPSTDNPDYFYTWTRDSGLVLKTLVDLFRNGDTSLLSTIENYISAQAIVQGISNPSGDLSSGAGLGEPKFNVDETAYTGSWGRPQRDGPALRATAMIGFGQWLLDNGYTSTATDIVWPLVRNDLSYVAQYWNQTGYDLWEEVNGSSFFTIAVQHRALVEGSAFATAVGSSCSWCDSQAPEILCYLQSFWTGSFILANFDSSRSGKDANTLLGSIHTFDPEAACDDSTFQPCSPRALANHKEVVDSFRSIYTLNDGLSDSEAVAVGRYPEDTYYNGNPWFLCTLAAAEQLYDALYQWDKQGSLEVTDVSLDFFKALYSDAATGTYSSSSSTYSSIVDAVKTFADGFVSIVETHAASNGSMSEQYDKSDGEQLSARDLTWSYAALLTANNRRNSVVPASWGETSASSVPGTCAATSAIGTYSSVTVTSWPSIVATGGTTTTATPTGSGSVTSTSKTTATASKTSTSTSSTSCTTPTAVAVTFDLTATTTYGENIYLVGSISQLGDWETSDGIALSADKYTSSDPLWYVTVTLPAGESFEYKFIRIESDDSVEWESDPNREYTVPQACGTSTATVTDTWR
Ethanol yield after 70 hours fermentation determined by HPLC, With SA (SA dose 5.0 mM/gDS): 117.67 | Ethanol yield after 70 hours fermentation determined by HPLC, without SA (no SA): 113.74
